Laboratory results: paper PMC11055677 (Cell, 2024)
One block for each binder: values may come before it.

B2: CINP, full-length wild type, subunit of the reconstituted 55LCC complex (natural protein, human, UniProt Q9BW66 1-212, looked up)
chain: MEAKTLGTVTPRKPVLSVSARKIKDNAADWHNLILKWETLNDAGFTTANNIANLKISLLNKDKIELDSSSPASKENEEKVCLEYNEELEKLCEELQATLDGLTKIQVKMEKLSSTTKGICELENYHYGEESKRPPLFHTWPTTHFYEVSHKLLEMYRKELLLKRTVAKELAHTGDPDLTLSYLSMWLHQPYVESDSRLHLESMLLETGHRAL
B4: SPATA5, full-length wild type, subunit of the reconstituted 55LCC complex (enzyme, human, UniProt Q8NB90 1-893, looked up)
chain: MSSKKNRKRLNQSAENGSSLPSAASSCAEARAPSAGSDFAATSGTLTVTNLLEKVDDKIPKTFQNSLIHLGLNTMKSANICIGRPVLLTSLNGKQEVYTAWPMAGFPGGKVGLSEMAQKNVGVRPGDAIQVQPLVGAVLQAEEMDVALSDKDMEINEEELTGCILRKLDGKIVLPGNFLYCTFYGRPYKLQVLRVKGADGMILGGPQSDSDTDAQRMAFEQSSMETSSLELSLQLSQLDLEDTQIPTSRSTPYKPIDDRITNKASDVLLDVTQSPGDGSGLMLEEVTGLKCNFESAREGNEQLTEEERLLKFSIGAKCNTDTFYFISSTTRVNFTEIDKNSKEQDNQFKVTYDMIGGLSSQLKAIREIIELPLKQPELFKSYGIPAPRGVLLYGPPGTGKTMIARAVANEVGAYVSVINGPEIISKFYGETEAKLRQIFAEATLRHPSIIFIDELDALCPKREGAQNEVEKRVVASLLTLMDGIGSEVSEGQVLVLGATNRPHALDAALRRPGRFDKEIEIGVPNAQDRLDILQKLLRRVPHLLTEAELLQLANSAHGYVGADLKVLCNEAGLCALRRILKKQPNLPDVKVAGLVKITLKDFLQAMNDIRPSAMREIAIDVPNVSWSDIGGLESIKLKLEQAVEWPLKHPESFIRMGIQPPKGVLLYGPPGCSKTMIAKALANESGLNFLAIKGPELMNKYVGESERAVRETFRKARAVAPSIIFFDELDALAVERGSSLGAGNVADRVLAQLLTEMDGIEQLKDVTILAATNRPDRIDKALMRPGRIDRIIYVPLPDAATRREIFKLQFHSMPVSNEVDLDELILQTDAYSGAEIVAVCREAALLALEEDIQANLIMKRHFTQALSTVTPRIPESLRRFYEDYQEKSGLHTL

Legend:
[1] = biological target: B2; assay: cryo-EM structure; reconstituted 55LCC incubated with 5 mM ATPγS, 0.01% fluorinated octyl maltoside; AlphaFold 2 models rigid-body fitted into the composite map; details: both partners purified
[2] = biological target: B4; assay: mass photometry; reconstituted 55LCC, 120 nM final, 25 mM Tris pH 7.5, 400 mM NaCl, with 2 mM ADP or after addition of 5 mM ATPγS (more of the 55LCC peak with ATPγS); details: both partners purified
[3] = biological target: T1, C1orf109, untagged, of the purified C1orf109-CINP sub-complex (human, UniProt Q9NX04 1-203); assay: native MS; untagged proteins in 500 mM ammonium acetate; 12 μM C1orf109, 20 μM CINP, 20 μM C1orf109-CINP complex; details: both partners purified
T1 sequence (looked up): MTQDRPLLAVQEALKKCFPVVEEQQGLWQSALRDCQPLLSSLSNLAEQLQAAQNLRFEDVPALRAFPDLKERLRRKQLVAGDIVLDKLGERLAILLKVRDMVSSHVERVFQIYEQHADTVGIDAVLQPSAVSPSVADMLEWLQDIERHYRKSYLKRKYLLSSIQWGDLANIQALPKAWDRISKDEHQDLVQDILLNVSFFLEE

[4] = biological target: the molecule itself; assay: cryo-EM structure; reconstituted 55LCC incubated with 5 mM ATPγS, 0.01% fluorinated octyl maltoside; AlphaFold 2 models rigid-body fitted into the composite map

Binder: B2
- binding result [2]: binds

Binder: B4
- binding result [4]: binds

Now from value to binder:

- binding result [1]: binds
B1: C1orf109, full-length wild type, subunit of the reconstituted 55LCC complex (natural protein, human, UniProt Q9NX04 1-203, looked up)
chain: MTQDRPLLAVQEALKKCFPVVEEQQGLWQSALRDCQPLLSSLSNLAEQLQAAQNLRFEDVPALRAFPDLKERLRRKQLVAGDIVLDKLGERLAILLKVRDMVSSHVERVFQIYEQHADTVGIDAVLQPSAVSPSVADMLEWLQDIERHYRKSYLKRKYLLSSIQWGDLANIQALPKAWDRISKDEHQDLVQDILLNVSFFLEE

- stoichiometry N [3]: 1
B3: CINP, untagged, of the purified C1orf109-CINP sub-complex (natural protein, human, UniProt Q9BW66 1-212, looked up)
chain: MEAKTLGTVTPRKPVLSVSARKIKDNAADWHNLILKWETLNDAGFTTANNIANLKISLLNKDKIELDSSSPASKENEEKVCLEYNEELEKLCEELQATLDGLTKIQVKMEKLSSTTKGICELENYHYGEESKRPPLFHTWPTTHFYEVSHKLLEMYRKELLLKRTVAKELAHTGDPDLTLSYLSMWLHQPYVESDSRLHLESMLLETGHRAL
